Test results: paper PMC7266990 (2020)

Biological target: A. fumigatus wt CBC consisting of the HapB^230–299, HapC^40–137, and HapE^47–164 subunits (Aspergillus fumigatus)
Assay: SPR

B1: A. fumigatus HapX^24–158 bZIP peptide (covering the CBC-binding domain, basic region, and coiled-coil domain) (domain or fragment)
chain: SPSPGPGTPGSITSKEWVIPPRPKPGRKPATDTPPTKRKAQNRAAQRAFRERRAARVNELEEQIKKIEDEHEIHIAAFKEQITNLSREVEQCRSEMTWWRDRCHALEKEVSVERSAKEAIVKEFRSSLSDREAVR
B1 showed a Kd of 1.01 nM.
